Experimental data published in PMC11039992.

B1: MAC-RBM41-WT [human] / DEAH-box RNA helicase DHX8 [human (endogenous in Flp-In T-REx 293)] (parent)
chain 1: MKRVNSCVKSDEHVLEELETEGERQLKSLLQHQLDTSVSIEECMSKKESFAPGTMYKPFGKEAAGTMTLSQFQTLHEKDQETASLRELGLNETEILIWKSHVSGEKKTKLRATPEAIQNRLQDIEERISERQRILCLPQRFAKSKQLTRREMEIEKSLFQGADRHSFLKALYYQDEPQKKNKGDPMNNLESFYQEMIMKKRLEEFQLMRGEPFASHSLVSATSVGDSGTAESPSLLQDKGKQAAQGKGPSLHVANVIDFSPEQCWTGPKKLTQPIEFVPEDEIQRNRLSEEEIRKIPMFSSYNPGEPNKVLYLKNLSPRVTERDLVSLFARFQEKKGPPIQFRMMTGRMRGQAFITFPNKEIAWQALHLVNGYKLHGKILVIEFGKNKKQRSNLQATSLISCATGSTTEISGS
chain 2: MAVAVAMAGALIGSEPGPAEELAKLEYLSLVSKVCTELDNHLGINDKDLAEFVISLAEKNTTFDTFKASLVKNGAEFTDSLISNLLRLIQTMRPPAKPSTSKDPVVKPKTEKEKLKELFPVLCQPDNPSVRTMLDEDDVKVAVDVLKELEALMPSAAGQEKQRDAEHRDRTKKKKRSRSRDRNRDRDRDRERNRDRDHKRRHRSRSRSRSRTRERNKVKSRYRSRSRSQSPPKDRKDRDKYGERNLDRWRDKHVDRPPPEEPTIGDIYNGKVTSIMQFGCFVQLEGLRKRWEGLVHISELRREGRVANVADVVSKGQRVKVKVLSFTGTKTSLSMKDVDQETGEDLNPNRRRNLVGETNEETSMRNPDRPTHLSLVSAPEVEDDSLERKRLTRISDPEKWEIKQMIAANVLSKEEFPDFDEETGILPKVDDEEDEDLEIELVEEEPPFLRGHTKQSMDMSPIKIVKNPDGSLSQAAMMQSALAKERRELKQAQREAEMDSIPMGLNKHWVDPLPDAEGRQIAANMRGIGMMPNDIPEWKKHAFGGNKASYGKKTQMSILEQRESLPIYKLKEQLVQAVHDNQILIVIGETGSGKTTQITQYLAEAGYTSRGKIGCTQPRRVAAMSVAKRVSEEFGCCLGQEVGYTIRFEDCTSPETVIKYMTDGMLLRECLIDPDLTQYAIIMLDEAHERTIHTDVLFGLLKKTVQKRQDMKLIVTSATLDAVKFSQYFYEAPIFTIPGRTYPVEILYTKEPETDYLDASLITVMQIHLTEPPGDILVFLTGQEEIDTACEILYERMKSLGPDVPELIILPVYSALPSEMQTRIFDPAPPGSRKVVIATNIAETSLTIDGIYYVVDPGFVKQKVYNSKTGIDQLVVTPISQAQAKQRAGRAGRTGPGKCYRLYTERAYRDEMLTTNVPEIQRTNLASTVLSLKAMGINDLLSFDFMDAPPMETLITAMEQLYTLGALDDEGLLTRLGRRMAEFPLEPMLCKMLIMSVHLGCSEEMLTIVSMLSVQNVFYRPKDKQALADQKKAKFHQTEGDHLTLLAVYNSWKNNKFSNPWCYENFIQARSLRRAQDIRKQMLGIMDRHKLDVVSCGKSTVRVQKAICSGFFRNAAKKDPQEGYRTLIDQQVVYIHPSSALFNRQPEWVVYHELVLTTKEYMREVTTIDPRWLVEFAPAFFKVSDPTKLSKQKKQQRLEPLYNRYEEPNAWRISRAFRRR

Variants of: B1
Test: BioID proximity labeling (mass spectrometry spectral counts)
Conditions: with DEAH-box RNA helicase DHX8 [human (endogenous in Flp-In T-REx 293)]; MAC-tagged protein expression induced with tetracycline in the presence of biotin for 24 h; three independent replicates; parent: 23; read off a plot

response (spectral count)	Variant
19	chain 1 MKRVNSCVKSDEHVLEELETEGERQLKSLLQHQLDTSVSIEECMSKKESFAPGTMYKPFGKEAAGTMTLSQFQTLHEKDQETASLRELGLNETEILIWKSHVSGEKKTKLRATPEAIQNRLQDIEERISERQRILCLPQRFAKSKQLTRREMEIEKSLFQGADRHSFLKALYYQDEPQKKNKGDPMNNLESFYQEMIMKKRLEEFQLMRGEPFASHSLVSATSVGDSGTAESPSLLQDKGKQAAQGKGPSLHVANVIDFSPEQCWTGPKKLTQPIEFVPEDEIQRNRLSEEEIRKIPMFSSYNPGEPNKVLALKNLSPRVTERDLVSLFARFQEKKGPPIQFRMMTGRMRGQAFITFPNKEIAWQALHLVNGYKLHGKILVIEFGKNKKQRSNLQATSLISCATGSTTEISGS [chain 1 Y312A]
23	chain 1 MKRVNSCVKSDEHVLEELETEGERQLKSLLQHQLDTSVSIEECMSKKESFAPGTMYKPFGKEAAGTMTLSQFQTLHEKDQETASLRELGLNETEILIWKSHVSGEKKTKLRATPEAIQNRLQDIEERISERQRILCLPQRFAKSKQLTRREMEIEKSLFQGADRHSFLKALYYQDEPQKKNKGDPMNNLESFYQEMIMKKRLEEFQLMRGEPFASHSLVSATSVGDSGTAESPSLLQDKGKQAAQGKGPSLHVANVIDFSPEQCWTGPKKLTQPIEFVPEDEIQRNRLSEEEIRKIPMFSSYNPGEPNKVLALKNLSPRVTERDLVSLFARFQEKKGPPIQFRMMTGRMRGQAAITFPNKEIAWQALHLVNGYKLHGKILVIEFGKNKKQRSNLQATSLISCATGSTTEISGS [chain 1 Y312A F354A]

The next lines start with the variant.

Variant	response (spectral count)
chain 1 MKRVNSCVKSDEHVLEELETEGERQLKSLLQHQLDTSVSIEECMSKKESFAPGTMYKPFGKEAAGTMTLSQFQTLHEKDQETASLRELGLNETEILIWKSHVSGEKKTKLRATPEAIQNRLQDIEERISERQRILCLPQRFAKSKQLTRREMEIEKSLFQGADRHSFLKALYYQDEPQKKNKGDPMNNLESFYQEMIMKKRLEEFQLMRGEPFASHSLVSATSVGDSGTAESPSLLQDKGKQAAQGKGPSLHVANVIDFSPEQCWTGPKKLTQPIEFVPEDEIQRNRLSEEEIRKIPMFSSYNPGEPNKVLYLKNLSPRVTERDLVSLFARFQEKKGPPIQFRMMTGRMRGAAFITFPNKEIAWQALHLVNGYKLHGKILVIEFGKNKKQRSNLQATSLISCATGSTTEISGS [chain 1 Q352A]	23
chain 1 MKRVNSCVKSDEHVLEELETEGERQLKSLLQHQLDTSVSIEECMSKKESFAPGTMYKPFGKEAAGTMTLSQFQTLHEKDQETASLRELGLNETEILIWKSHVSGEKKTKLRATPEAIQNRLQDIEERISERQRILCLPQRFAKSKQLTRREMEIEKSLFQGADRHSFLKALYYQDEPQKKNKGDPMNNLESFYQEMIMKKRLEEFQLMRGEPFASHSLVSATSVGDSGTAESPSLLQDKGKQAAQGKGPSLHVANVIDFSPEQCWTGPKKLTQPIEFVPEDEIQRNRLSEEEIRKIPMFSSYNPGEPNKVLYLKNLSPRVTERDLVSLFARFQEKKGPPIQFRMMTGRMRGQAAITFPNKEIAWQALHLVNGYKLHGKILVIEFGKNKKQRSNLQATSLISCATGSTTEISGS [chain 1 F354A]	19
